From patent US20020045591A1, “Methods and therapeutic compositions for treating cancer” (priority 1998, published 2002)

B1: α-catenin: HA-tagged chicken α-catenin in the pCGN vector (protein)
chain: TAVTAGNVNFRWDPKSLEIRTLAVERLLEPLVTQVTTLVNTSNKGPSNKKRGRSKKAHVLAASVEQATENFLDKGDKIAKESQFLKEELVAAVEDVRKQGDLMKSASGEFADDPCSSVKRGNMVRAARALLSAVTRLLILADMADVYKLLVQLKVVEEGILKLRNAGTEQDLGIQYKALKPEVDKLNIMAAKRQQELKDVGHRDQMAAARGILQKNVPILYTASQACLQHFDVAAYKANRDLIYKQLQQAVTGISNAAQATASDDAAQQQGGGGELAYALNNFDKQIIVDPSTFSEQRFRPSLEERLESIISGAALMADSSCTRDDRRERIVAECNAVRQALQDLLSEYMGNAGRKERSDALNSAIDKMTKKTRDLRRQLRKAVMDHVSDSFLETNVPLLVLIEAARNGNEKEVKEYTQVFREHANKLIEVANLACSISNNEEGVKLVRMSASQLEALCPQVINAALALAAKPQSKLAQENMELFKEQWEKQVRVLTDAVDDITSIDDFLAVSENHILEDVNKCVIALQEKDVDGLDRTAGAIRGRAARVIHVVTSEMDNYEPGVYTEKVLEATKLLSNTVMPRFTEQVEAAVEALSSDPAQPMDENEFIDRSRLVYDGIRDIRKAVLMIRTPEELDDSDFETEDFDVRSKTSIQTEDDQLIAGQSARAIMAQLPQEQKAKIAEAVASFQEEKSKLDAEVSKWDDSGNDIIVLAKQMCMIMMEMTDFTRGKGPLKNTSDVISAAKKIAEAGSRMDKLGRTIADHCPDSASKQDLLAYLQRIALYCHQLNICSKVKAEVQNLGGELVVSGVDSAMSLIQAAKNLMNAVVQTVKASYVASTKYQKSQGMASLNLPAVSWKMKAPEKKPLVKREKQDETQTKIKRASQKKHVNPVQALSEFKAMESI
modifications: left off: small tags and cut ends
notes: HA-tagged chicken α-catenin in the pCGN vector
B2: α-catenin Δβ: HA-tagged mutant α-catenin lacking the β-catenin binding site (amino acids 118-166) (protein)
chain: MTAVTAGNVNFRWDPKSLEIRTLAVERLLEPLVTQVTTLVNTSNKGPSNKKRGRSKKAHVLAASVEQATENFLDKGDKIAKESQFLKEELVAAVEDVRKQGDLMKSASGEFADDPCSAGTEQDLGIQYKALKPEVDKLNIMAAKRQQELKDVGHRDQMAAARGILQKNVPILYTASQACLQHFDVAAYKANRDLIYKQLQQAVTGISNAAQATASDDAAQQQGGGGELAYALNNFDKQIIVDPSTFSEQRFRPSLEERLESIISGAALMADSSCTRDDRRERIVAECNAVRQALQDLLSEYMGNAGRKERSDALNSAIDKMTKKTRDLRRQLRKAVMDHVSDSFLETNVPLLVLIEAARNGNEKEVKEYTQVFREHANKLIEVANLACSISNNEEGVKLVRMSASQLEALCPQVINAALALAAKPQSKLAQENMELFKEQWEKQVRVLTDAVDDITSIDDFLAVSENHILEDVNKCVIALQEKDVDGLDRTAGAIRGRAARVIHVVTSEMDNYEPGVYTEKVLEATKLLSNTVMPRFTEQVEAAVEALSSDPAQPMDENEFIDRSRLVYDGIRDIRKAVLMIRTPEELDDSDFETEDFDVRSKTSIQTEDDQLIAGQSARAIMAQLPQEQKAKIAEAVASFQEEKSKLDAEVSKWDDSGNDIIVLAKQMCMIMMEMTDFTRGKGPLKNTSDVISAAKKIAEAGSRMDKLGRTIADHCPDSASKQDLLAYLQRIALYCHQLNICSKVKAEVQNLGGELVVSGVDSAMSLIQAAKNLMNAVVQTVKASYVASTKYQKSQGMASLNLPAVSWKMKAPEKKPLVKREKQDETQTKIKRASQKKHVNPVQALSEFKAMESI
modifications: left off: small tags and cut ends

What was measured:
SW480 cells = assay: Double immunofluorescence of β-catenin in SW480 cells (Example 2); assay type: cell-based, human; settings: transfected SW480 cells, FIG. 19B
Source text: Immunofluorescence Microscopy: Cells cultured on glass coverslips were fixed with 3.7% paraformaldehyde in PBS and permeabilized with 0.5% Triton X-100. Monoclonal antibodies against human plakoglobin (11E4), β-catenin (5H10), the COOH terminus of β-catenin (6F9) and α-catenin (1G5) were described and kindly provided by Drs. M. Wheelock and K. Johnson (Univ. Toledo, Ohio). The secondary antibody was FITC- or Cy3-labeled goat anti mouse IgG (Jackson ImmunoResearch Laboratories, West Grove, Pa.). Polyclonal antiserum against β-catenin, monoclonal antibody against pan cadherin (CH-19), vinculin ([…]) and α-actinin (BM75.2) were from Sigma (Holon, Israel). Monoclonal antibodies against the splicing factor SC35 and the HA epitope were kindly provided by Dr. D. Helfman (CSH Laboratory, N.Y.). Polyclonal rabbit antibody against the VSV-G epitope was a gift from Dr. JC Perriard (ETH, Zurich, Switzerland). FITC-labeled goat anti-rabbit IgG antibody was from Cappel/ICN. Monoclonal antibody against LEF-1 was kindly provided by Dr. R. Grosschedl (Univ. Calif. San Francisco, Calif.). […] Images of the fluorescent cells were recorded with a cooled, scientific grade CCD camera (Photometrics, Tucson, Ariz.). Integrated fluorescent intensities in transfected and nontransfected cells were determined, after the background was subtracted.

[1] = tested on: β-catenin-dependent transactivation; assay: LEF-1 consensus luciferase transactivation in SW480 cells (Example 2); assay type: cell-based, human; settings: co-transfection, FIG. 19A
Protocol: Cell Culture and Transfections: Canine kidney epithelial cells MDCK, human fibrosarcoma HT1080, 293-T human embryonic kidney cells, Balb/C mouse 3T3 and human colon carcinoma SW480 cell lines were cultured in Dulbecco's modified Eagle's medium supplemented with 10% calf serum (Gibco, Grand Island, N.Y.) at 37° C. in the presence of 7% CO2. The human renal carcinoma cell line KTCTL60 was grown in RPMI medium and 10% calf serum. Cells were transiently transfected with the cDNA constructs described below, using Ca^2+-phosphate or lipofectamine (Gibco) and the expression of the transgene was assessed between 24 and 48 hours after transfection. In some experiments, the expression of the stably transfected NH2 terminus-deleted β-catenin (Δ57) was enhanced in HT1080 cells by overnight treatment with 2 mM sodium butyrate.
A plasmid encoding β-galactosidase (0.5 μg) was cotransfected to enable normalization for transfection efficiency. The relevant plasmid expressing catenin constructs (4.5 μg) was co-transfected with the reporter, or an empty expression vector was included. After 24-48 hours expression of the reporter (luciferase) and the control (β-galactosidase) genes were determined using enzyme assay systems from Promega (Madison, Wis.).

Molecule | effect on nuclear localization of β-catenin (SW480 cells) | effect on constitutive LEF-1 driven transcription [1]
B1 | sequestered to the cytoplasm | effectively blocked
B2 | did not show this activity | abolished the transactivation inhibition capacity
